The values that follow come from US20120329717A1.

Assay [1] addresses recombinant N-type (Cav2.2) VGCC α1B-b/α2δ1/β3 expressed in Xenopus oocytes (rat; rabbit) (UniProt Q02294). The assay is described as follows: cell-based or functional assay.
The target of assay [2] is recombinant N-type (Cav2.2) VGCC α1B-b/α2δ1/β3 expressed in Xenopus oocytes (rat; rabbit), Q02294. In words: cell-based or functional assay.
Chain of recombinant N-type (Cav2.2) VGCC α1B-b/α2δ1/β3 expressed in Xenopus oocytes (rat; rabbit), Q02294 (P13806 27-1106, stated change not applied, chain 2 of 2): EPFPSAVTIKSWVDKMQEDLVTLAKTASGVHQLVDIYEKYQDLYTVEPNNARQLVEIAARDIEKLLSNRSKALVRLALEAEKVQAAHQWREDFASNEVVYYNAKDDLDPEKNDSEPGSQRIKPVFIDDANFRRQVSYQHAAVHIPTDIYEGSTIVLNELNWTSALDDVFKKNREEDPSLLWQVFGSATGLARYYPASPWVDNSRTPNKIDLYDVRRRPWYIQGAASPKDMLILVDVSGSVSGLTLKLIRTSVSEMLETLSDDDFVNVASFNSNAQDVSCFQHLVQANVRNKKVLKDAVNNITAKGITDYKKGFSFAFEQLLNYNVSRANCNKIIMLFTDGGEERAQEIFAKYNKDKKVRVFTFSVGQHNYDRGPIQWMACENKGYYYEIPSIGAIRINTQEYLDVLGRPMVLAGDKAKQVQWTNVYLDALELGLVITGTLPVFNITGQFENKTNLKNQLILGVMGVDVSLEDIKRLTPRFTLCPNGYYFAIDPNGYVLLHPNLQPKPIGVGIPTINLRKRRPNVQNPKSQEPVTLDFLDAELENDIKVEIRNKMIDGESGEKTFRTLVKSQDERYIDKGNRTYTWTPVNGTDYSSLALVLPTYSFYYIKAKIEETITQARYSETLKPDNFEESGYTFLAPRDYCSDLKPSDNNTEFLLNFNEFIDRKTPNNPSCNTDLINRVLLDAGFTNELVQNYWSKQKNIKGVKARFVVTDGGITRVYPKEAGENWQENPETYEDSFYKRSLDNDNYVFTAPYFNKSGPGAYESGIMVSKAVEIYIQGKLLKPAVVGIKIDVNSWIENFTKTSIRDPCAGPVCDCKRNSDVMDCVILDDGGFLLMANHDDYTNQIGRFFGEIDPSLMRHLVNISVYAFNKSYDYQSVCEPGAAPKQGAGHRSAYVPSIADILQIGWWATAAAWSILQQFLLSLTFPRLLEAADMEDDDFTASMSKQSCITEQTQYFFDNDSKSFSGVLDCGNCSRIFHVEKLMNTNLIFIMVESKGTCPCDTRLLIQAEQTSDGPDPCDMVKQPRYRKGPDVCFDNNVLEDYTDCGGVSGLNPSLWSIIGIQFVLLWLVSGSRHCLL
Chain of recombinant N-type (Cav2.2) VGCC α1B-b/α2δ1/β3 expressed in Xenopus oocytes (rat; rabbit), Q02294 (P54287 whole entry, stated change not applied, chain 3 of 2, further chain): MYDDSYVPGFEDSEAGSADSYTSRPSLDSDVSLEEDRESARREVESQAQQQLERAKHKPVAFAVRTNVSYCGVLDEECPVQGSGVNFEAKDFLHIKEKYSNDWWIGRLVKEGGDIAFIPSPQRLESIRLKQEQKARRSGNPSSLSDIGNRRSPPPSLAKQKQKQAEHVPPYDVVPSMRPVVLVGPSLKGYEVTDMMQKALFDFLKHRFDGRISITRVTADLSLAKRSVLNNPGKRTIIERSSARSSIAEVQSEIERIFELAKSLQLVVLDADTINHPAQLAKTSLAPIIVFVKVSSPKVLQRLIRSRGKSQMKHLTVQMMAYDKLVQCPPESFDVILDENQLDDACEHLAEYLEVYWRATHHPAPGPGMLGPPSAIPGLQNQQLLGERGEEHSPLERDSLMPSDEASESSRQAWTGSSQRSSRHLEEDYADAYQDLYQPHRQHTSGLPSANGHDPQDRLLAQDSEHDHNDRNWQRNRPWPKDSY

Chain of recombinant N-type (Cav2.2) VGCC α1B-b/α2δ1/β3 expressed in Xenopus oocytes (rat; rabbit) (P13806 27-1106, stated change not applied, chain 2 of 2): as the sequence (P13806 27-1106, stated change not applied, chain 2 of 2) above
Chain of recombinant N-type (Cav2.2) VGCC α1B-b/α2δ1/β3 expressed in Xenopus oocytes (rat; rabbit) (P54287 whole entry, stated change not applied, chain 3 of 2, further chain): as the sequence (P54287 whole entry, stated change not applied, chain 3 of 2, further chain) above

For the molecule “ω-conotoxin CVIB (from UniProt P58918 1-25) (peptide)”, the IC50 of inhibition of normalized peak IBa, Xenopus oocytes in assay [1] came out at 12 nM. Take ω-conotoxin CVIE (peptide): in assay [1], the IC50 of inhibition of normalized peak IBa, Xenopus oocytes came out at 2.6 nM; the time constant of block (τon) at HP -80 mV was determined as 31.5 s; the time constant of block (τon) at HP -125 mV was 38.5 s.

B1: ω-conotoxin CVIF (peptide)
peptide: CKGKGASCRRTSYDCCTGSCRSGRC
modifications: not checked
Regarding B1, the IC50 of inhibition of normalized peak IBa, Xenopus oocytes in assay [2] came out at 19.9 nM.
